Laboratory results published in paper PMC3017772, “The CaaX specificities of Arabidopsis protein prenyltransferases explain era1 and ggb phenotypes” (BMC Plant Biology, 2010).

Assays:
[1] = molecular target: recombinant Arabidopsis protein farnesyltransferase (PFT) (Arabidopsis (ecotype Col-0)) (UniProt Q9LX33)
[2] = molecular target: recombinant Arabidopsis protein geranylgeranyltransferase type 1 (PGGT1) (Arabidopsis (ecotype Col-0)) (UniProt Q9LX33)
Chain of recombinant Arabidopsis protein geranylgeranyltransferase type 1 (PGGT1) (Arabidopsis (ecotype Col-0)) (Q9LX33 whole entry, chain 1 of 2): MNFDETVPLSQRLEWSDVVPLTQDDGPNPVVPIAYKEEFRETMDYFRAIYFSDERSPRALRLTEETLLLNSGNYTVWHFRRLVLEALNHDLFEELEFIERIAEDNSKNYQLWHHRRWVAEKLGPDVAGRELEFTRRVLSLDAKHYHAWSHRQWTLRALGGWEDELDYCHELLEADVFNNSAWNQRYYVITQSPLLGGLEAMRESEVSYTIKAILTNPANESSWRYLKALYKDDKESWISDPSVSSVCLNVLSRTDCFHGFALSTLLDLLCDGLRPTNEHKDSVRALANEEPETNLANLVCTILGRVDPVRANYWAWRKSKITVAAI
Chain of recombinant Arabidopsis protein geranylgeranyltransferase type 1 (PGGT1) (Arabidopsis (ecotype Col-0)) (O80642 whole entry, chain 2 of 2, further chain): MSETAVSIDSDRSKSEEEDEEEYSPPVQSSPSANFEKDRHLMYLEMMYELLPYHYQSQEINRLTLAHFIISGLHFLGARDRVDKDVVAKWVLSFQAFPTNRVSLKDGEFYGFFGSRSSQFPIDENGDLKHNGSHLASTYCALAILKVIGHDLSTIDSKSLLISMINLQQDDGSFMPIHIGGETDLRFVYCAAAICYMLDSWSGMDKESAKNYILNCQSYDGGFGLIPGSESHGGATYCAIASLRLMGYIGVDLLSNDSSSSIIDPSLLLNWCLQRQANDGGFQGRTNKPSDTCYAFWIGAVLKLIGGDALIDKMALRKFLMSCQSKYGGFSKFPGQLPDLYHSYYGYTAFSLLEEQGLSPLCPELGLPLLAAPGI

Chain of recombinant Arabidopsis protein farnesyltransferase (PFT) (Arabidopsis (ecotype Col-0)) (Q9LX33 whole entry, chain 1 of 2): as the sequence (Q9LX33 whole entry, chain 1 of 2) above
Chain of recombinant Arabidopsis protein farnesyltransferase (PFT) (Arabidopsis (ecotype Col-0)) (Q38920 whole entry, chain 2 of 2, further chain): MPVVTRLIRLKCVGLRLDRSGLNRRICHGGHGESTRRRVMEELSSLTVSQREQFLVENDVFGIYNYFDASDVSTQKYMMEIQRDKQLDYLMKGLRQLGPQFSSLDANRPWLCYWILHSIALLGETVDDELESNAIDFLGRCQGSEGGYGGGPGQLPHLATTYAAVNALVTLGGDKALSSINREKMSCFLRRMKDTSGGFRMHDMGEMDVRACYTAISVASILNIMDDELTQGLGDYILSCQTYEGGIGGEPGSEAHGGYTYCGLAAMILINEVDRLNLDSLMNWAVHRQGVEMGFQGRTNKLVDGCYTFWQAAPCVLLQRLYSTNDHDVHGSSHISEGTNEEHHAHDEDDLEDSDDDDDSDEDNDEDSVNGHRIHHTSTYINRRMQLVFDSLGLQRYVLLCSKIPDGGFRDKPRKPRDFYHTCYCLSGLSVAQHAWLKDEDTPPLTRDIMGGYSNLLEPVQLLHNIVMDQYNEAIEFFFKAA

| Substance | Km for the CaaX protein substrate; in vitro prenylation by purified PFT with [1-3H]farnesyl diphosphate, Lineweaver-Burk analysis [1] [µM] | Km for the CaaX protein substrate; in vitro prenylation by purified PGGT1 with [1-3H]geranylgeranyl diphosphate, Lineweaver-Burk analysis [2] [µM] |
| --- | --- | --- |
| GFP-BD-CVII | 6.9 | 19 |
| GFP-BD-CVIL | 7 | 17.2 |
| GFP-BD-CVIM | 5.4 | 5.8 |
| GFP-BD-CVIQ | 5.5 | 3.5 |
